Measurements as given in US12097252B2, “Formulation of a peptide vaccine” (priority 2016, dated 2024).
Bridge positions count the residues as written; N and C are the ends. Ends that are not written are not given here.

Experiment: In-use chemical stability of vaccine emulsions by UPLC/MS after extraction of peptides
Format: physicochemical
Conditions: for Peptides and related substances (≥0.05%) [Area %]: peak in reconstituted P53-DP-5P; for Related substances (≥0.05%) [Area %]: peak in reconstituted PRAME-DP-5P
Experimental: For samples showing complete dissolution, an emulsion stability of >2 hours, and a chemical stability of the Drug Product solutions (without additional dilution) of >2 hours, the in-use chemical stability of the vaccine emulsions with Montanide ISA 51 VG was monitored with UPLC/MS. For analysis of chemical stability of the reconstituted and emulsified Drug Products, samples were analyzed at various time points, at least up to 2 hours after dissolution. UPLC/MS analysis was performed according to the method describe above for chemical stability of the Drug Product solution, using an extra sample preparation step for extraction of the peptides from the vaccine emulsion. For sample preparation of emulsified products, the following steps were applied: • Take 300 μL Reconstitution Solution and add this to a 15 mL Greiner tube • Add 100 μL heptane • Add 200 μL of the Drug Product emulsion. Pipet the solution up and down three times. • Vortex the mixture for 30 seconds • Centrifuge the mixture for 5 minutes at 4400 rpm to obtain a two-phase system • With a 20-200 μL pipette, take a 100 μL sample from the bottom layer and transfer to a total recovery UPLC vial. • Analyze with UPLC/UV/MS according to the method described for chemical stability of the Drug Product solutions. Results Solvent Screening for Reconstitution and Emulsification
Analysis of chemical stability was performed by UPLC-MS as described in Example 1, at the section describing methods for analysis of in-use chemical stability of HPV-DP-6P and HPV-DP-7P vaccine emulsions including extraction of the peptides from the vaccine emulsion.
Purity of the Drug Product at different time points was calculated as follows: Purity (%)=100%−Sum of impurities≥0.05% area

Row | Substance | Peptides and related substances (≥0.05%) [Area %] (in-use storage t = 0 h) | Peptides and related substances (≥0.05%) [Area %] (in-use storage t = 1 h) | Peptides and related substances (≥0.05%) [Area %] (in-use storage t = 2 h) | Peptides and related substances (≥0.05%) [Area %] (in-use storage t = 3 h) | Related substances (≥0.05%) [Area %] (in-use storage t = 0 h) | Related substances (≥0.05%) [Area %] (in-use storage t = 1 h) | Related substances (≥0.05%) [Area %] (in-use storage t = 2 h) | Related substances (≥0.05%) [Area %] (in-use storage t = 3 h)
1 | SEQ ID NO 193: P53-derived synthetic long peptide, component of P53 DP-5P (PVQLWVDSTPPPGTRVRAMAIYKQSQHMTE) | 23.90 Area % | 22.38 | 22.31 | 22.19 |  |  |  | 
2 | SEQ ID NO 155: PRAME-derived peptide, component of PRAME DP-5P (WTVWSGNRASLYSFPEPEAAQPMTKKRKVDGLST) |  |  |  |  | 23.35 | 22.85 | 22.65 | 22.62
3 | SEQ ID NO 194: P53-derived synthetic long peptide, component of P53 DP-5P (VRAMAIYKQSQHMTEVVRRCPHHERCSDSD) | 13.00 Area % | 12.02 | 11.87 | 11.63 |  |  |  | 
4 | SEQ ID NO 203: P53-derived synthetic long peptide, component of P53 DP-5P (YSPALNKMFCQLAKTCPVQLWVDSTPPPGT) | 13.73 Area % | 16.73 | 16.21 | 15.56 |  |  |  | 
5 | SEQ ID NO 153: PRAME-derived peptide, component of PRAME DP-5P (LETFKAVLDGLDVLLAQEVRPRRWKLQVLDLRK) |  |  |  |  | 21.89 | 22.70 | 22.51 | 22.59
6 | SEQ ID NO 160: PRAME-derived peptide, component of PRAME DP-5P (LRRLLLSHIHASSYISPEKEEQYIAQFTSQFLS) |  |  |  |  | 13.61 | 13.49 | 13.34 | 13.40
7 | SEQ ID NO 191: P53-derived synthetic long peptide, component of P53 DP-5P (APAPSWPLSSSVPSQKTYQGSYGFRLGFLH) | 30.37 Area % | 28.75 | 28.81 | 28.81 |  |  |  | 
8 | SEQ ID NO 201: P53-derived synthetic long peptide, component of P53 DP-5P (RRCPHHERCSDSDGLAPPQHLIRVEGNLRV) | 12.43 Area % | 11.73 | 11.72 | 11.60 |  |  |  | 
9 | SEQ ID NO 203 intramolecular disulfide: related substance: intramolecular disulfide of the peptide set forth in SEQ ID NO: 203 (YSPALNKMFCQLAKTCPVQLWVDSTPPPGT; disulfide 10-16 (inferred)) | < | 1.05 | 1.54 | 1.87 |  |  |  | 
10 | SEQ ID NO 156: PRAME-derived peptide, component of PRAME DP-5P (IPVEVLVDLFLKEGACDELFSYLIEKVKRKKNVLR) |  |  |  |  | 10.56 | 10.52 | 10.17 | 9.98
11 | SEQ ID NO 166: PRAME-derived peptide, component of PRAME DP-5P (SYEDIHGTLHLERLAYLHARLRELLCELGRPSMV) |  |  |  |  | 13.49 | 14.15 | 13.81 | 13.59
